Data on 1 molecule can be found in patent US20180355396, “Biosensors for Organic and Inorganic Arsenic” (THE FLORIDA INTERNATIONAL UNIVERSITY BOARD OF TRUSTEES, published 2018).

This data set deals with T1, AfArsR C102S (Acidithiobacillus ferrooxidans, UniProt B7J952 B7J952:1-118, C102S).
T1 sequence: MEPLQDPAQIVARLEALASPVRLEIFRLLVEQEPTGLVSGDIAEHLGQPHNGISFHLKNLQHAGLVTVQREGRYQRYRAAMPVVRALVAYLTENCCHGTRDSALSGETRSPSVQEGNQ
As to the kind of experiment: FP; anisotropy; complex little affected by As(III) up to 40 uM, dissociated by MAs(III), Rox(III), PhAs(III); same buffer. The note with it: tags: C-terminal His tag (pBADarsR, E. coli Top10); chain copies: 2 (homodimer, inferred); label: 5'-6-FAM.

B1: ars operator/promoter 30-mer (arsO) (dsDNA)
DNA 1: ATCCACGAATATTTCTTGCAGTATTGACAA
DNA 2: TTGTCAATACTGCAAGAAATATTCGTGGAT
With B1, the binding result is recorded as “binds”.
